Laboratory results from patent US20250043302A1, “MUTATED HYDROXYPHENYLPYRUVATE DIOXYGENASE POLYPEPTIDE, AND CODING GENE AND USE THEREOF” (BEIJING DABEINONG BIOTECHNOLOGY CO., LTD., priority 2021, published 2025).
Changes are numbered by the printed parent chain. Numbers in names are those of the source.

B1: BnHPPD-02: nucleotide sequence encoding wild-type Brassica napus HPPD; vector DBN11742 (nucleic acid)
DNA: ATGGGACATGAAAACGCGGCAGTGTGTGAAACTCAACAACATGATGACGCCGCCTCCCCGGGGTTTAAACTTGTCGGGTTCTCAAAATTTGTTAGGAAGAATCCAAAGTCTGACAAGTTCAAGGTGAAACGCTTCCACCACATCGAGTTCTGGTGCGGGGATGCAACAAATGTTTCACGCCGCTTTTCATGGGGACTAGGAATGAGGTTTAGCGCAAAGAGTGATCTCTCCACTGGTAATATGGTTCATGCGAGCTACTTGCTCACATCTGGAGACCTGAGATTCCTCTTCACCGCACCATATTCTCCCTCCCTGTCAGCTGGTGAAGCTCAGCCTTCAGCAACTGCAAGTATCCCTTCGTTTGATCATGCATCGTGCAGGTCTTTCTTCAGTTCACATGGACTCGGCGTCAGAGCAGTAGCGATCGAAGTAGAGGATGCTGAATCAGCTTTCTCCATATCTGTCGCCAACGGCGCGGTGCCTTCTTCTCCACCAAACGTCTTGAATGGTGCTGTTACCATTGCTGAGGTGAAGCTGTACGGAGATGTTGTTTTAAGATATGTTTCATATTACAATGGGACCGTTTCTTTTCTTCCCGGCTTTGAATCTGTTGATGATACTTCTTCCTTCCCTCTTGATTATGGGATCAGGCGGCTGGACCACGCCGTCGGCAACGTGCCGGAGTTAGGTCCTGCTTTGACATATCTTGCCGGCTTCACTGGATTCCATCAATTTGCAGAGTTTACGGCTGACGACGTGGGGACCGCGGAGAGTGGGCTGAACTCAGCAGTCTTGGCCAACAATGATGAAATGGTGCTCCTCCCCATCAATGAACCTGTGCATGGAACAAAGAGAAAGTCGCAGATTCAAACATTTTTAGAGCACAATGAGGGAGCTGGGCTACAGCACCTCGCATTGATGTCAGAAGATATTTTTCGAACGTTGAGGGAGATGCGGAAACGATCTGGTGTAGGCGGCTTTGACTTCATGCCATCCCCTCCGCCAACCTACTACAAGAACCTGAAGAAGAGGGTTGGAGACGTCCTTTCCGAGGAGCAAATTGAAGAATGTGAGGAGCTTGGAATTCTGGTGGACAGAGATGATCAAGGAACACTACTTCAGATCTTCACAAAACCATTGGGCGACAGGCCAACGATATTCATTGAGATCATTCAGCGCGTTGGATGCATGAAGCGTGATGAGGAAGGGAAGGTCTACCAGAGTGGCGGTTGTGGTGGATTTGGAAAAGGAAATTTTTCTGAGCTGTTCAAAAGCATAGAAGAGTATGAGAAAACATTGGAGGCCAAGCAGCTTGTTGGTTGA
modifications: BnHPPD-02 Nucleotide Sequence
notes: vector DBN11742
B2: BnHPPDm-F372A-F383W-02: nucleotide sequence encoding Brassica napus HPPD with F372A+F383W; vector DBN11745 (nucleic acid)
DNA: B1 DNA with T1126G, T1127C, T1160G, C1161G
modifications: BnHPPDm-F372A-F383W-02 Nucleotide Sequence
notes: vector DBN11745
B3: BnHPPDm-F372A-02: nucleotide sequence encoding Brassica napus HPPD with F372A; vector DBN11743 (nucleic acid)
DNA: B1 DNA with T1126G, T1127C
modifications: BnHPPDm-F372A-02 Nucleotide Sequence
notes: vector DBN11743

system: Arabidopsis thaliana T1 plants; experiment: Isoxaflutole tolerance of transgenic Arabidopsis thaliana T1 plants (spray, bleached leaf area grade, damage score); type: in vivo; design: Scores (pesticide damage): scale not given here; details: isoxaflutole 35 g ai/ha (0.5x field concentration), spray, Arabidopsis thaliana T1 plants
Outline: (§1)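 T1 transformants selected by glufosinate; 18-day-old plants, with empty-vector and wild-type controls, sprayed with topramezone (25–200 g ai/ha), isoxaflutole (35–280 g ai/ha) or mesotrione (52.5–420 g ai/ha), water as 0×. Bleached leaf area fraction scored at 7 DAT as grades 0–3.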

Row | Molecule | Resistance evaluation | Scores (pesticide damage)
1 | B1 | Non-resistant | 100
2 | B2 | Moderately | 29
3 | B3 | Poorly | 52

same assay, conditions: isoxaflutole 35 g ai/ha (0.5x field concentration), spray, Arabidopsis thaliana T1 plants, 16 plants

Row | Molecule | Classification and statistics of the grade of pesticide damage: Grade 0 (number of plants) | Classification and statistics of the grade of pesticide damage: Grade 1 (number of plants) | Classification and statistics of the grade of pesticide damage: Grade 2 (number of plants) | Classification and statistics of the grade of pesticide damage: Grade 3 (number of plants)
4 | B1 | 0 | 0 | 0 | 16
5 | B2 | 5 | 8 | 3 | 0
6 | B3 | 0 | 7 | 9 | 0

same assay, conditions: isoxaflutole 70 g ai/ha (1x field concentration), spray, Arabidopsis thaliana T1 plants

Row | Molecule | Resistance evaluation | Scores (pesticide damage)
7 | B1 | Non-resistant | 100
8 | B2 | Moderately | 33
9 | B3 | Non-resistant | 100

same assay, conditions: isoxaflutole 70 g ai/ha (1x field concentration), spray, Arabidopsis thaliana T1 plants, 16 plants

Row | Molecule | Classification and statistics of the grade of pesticide damage: Grade 0 (number of plants) | Classification and statistics of the grade of pesticide damage: Grade 1 (number of plants) | Classification and statistics of the grade of pesticide damage: Grade 2 (number of plants) | Classification and statistics of the grade of pesticide damage: Grade 3 (number of plants)
10 | B1 | 0 | 0 | 0 | 16
11 | B2 | 3 | 10 | 3 | 0
12 | B3 | 0 | 0 | 0 | 16

system: Arabidopsis thaliana T1 plants; experiment: Topramezone tolerance of transgenic Arabidopsis thaliana T1 plants (spray, bleached leaf area grade, damage score); type: in vivo; details: number of plants; topramezone 25 g ai/ha (1×), 7 DAT; Table 4
Outline: as §1

Row | Molecule | Classification and statistics of the grade of pesticide damage: Grade 0 | Classification and statistics of the grade of pesticide damage: Grade 1 | Classification and statistics of the grade of pesticide damage: Grade 2 | Classification and statistics of the grade of pesticide damage: Grade 3
13 | B1 | 0 | 0 | 0 | 16
14 | B2 | 6 | 6 | 4 | 0
15 | B3 | 0 | 4 | 12 | 0

same assay, conditions: number of plants; topramezone 100 g ai/ha (4×), 7 DAT; Table 4

Row | Molecule | Classification and statistics of the grade of pesticide damage: Grade 0 | Classification and statistics of the grade of pesticide damage: Grade 1 | Classification and statistics of the grade of pesticide damage: Grade 2 | Classification and statistics of the grade of pesticide damage: Grade 3
16 | B1 | 0 | 0 | 0 | 16
17 | B2 | 3 | 8 | 5 | 0
18 | B3 | 0 | 0 | 0 | 16

same assay, conditions: pesticide damage score 0-100; topramezone 25 g ai/ha (1×), 7 DAT; Table 4

Row | Molecule | Scores
19 | B1 | 100
20 | B2 | 29
21 | B3 | 58

same assay, conditions: pesticide damage score 0-100; topramezone 100 g ai/ha (4×), 7 DAT; Table 4

Row | Molecule | Scores
22 | B1 | 100
23 | B2 | 38
24 | B3 | 100

same assay, conditions: topramezone 25 g ai/ha (1×), 7 DAT; Table 4

Row | Molecule | Resistance evaluation
25 | B1 | non-resistant (non-resistant plants (scores 68-100))
26 | B2 | moderately
27 | B3 | poorly

same assay, conditions: topramezone 100 g ai/ha (4×), 7 DAT; Table 4

Row | Molecule | Resistance evaluation
28 | B1 | non-resistant (non-resistant plants (scores 68-100))
29 | B2 | poorly
30 | B3 | non-resistant (non-resistant plants (scores 68-100))

system: Arabidopsis thaliana T1 plants; experiment: Mesotrione tolerance of transgenic Arabidopsis thaliana T1 plants (spray, bleached leaf area grade, damage score); type: in vivo; design: Scores: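 damage score 0-100 computed as Σ(N×S)/(T×M)×100 over grades 0-3 with higher meaning more damage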; details: mesotrione 52.5 g ai/ha; Arabidopsis thaliana T1 plants
Outline: as §1

Row | Molecule | Resistance evaluation | Scores
31 | B1 | Non-resistant | 100
32 | B2 | Moderately | 31
33 | B3 | Poorly resistant | 63

same assay, conditions: mesotrione 52.5 g ai/ha; Arabidopsis thaliana T1 plants; 16 plants

Row | Molecule | Grade 0 (classification and statistics of the grade of pesticide damage; number of plants) | Grade 1 (classification and statistics of the grade of pesticide damage; number of plants) | Grade 2 (classification and statistics of the grade of pesticide damage; number of plants) | Grade 3 (classification and statistics of the grade of pesticide damage; number of plants)
34 | B1 | 0 | 0 | 0 | 16
35 | B2 | 5 | 8 | 2 | 1
36 | B3 | 0 | 4 | 10 | 2

same assay, conditions: mesotrione 105 g ai/ha; Arabidopsis thaliana T1 plants

Row | Molecule | Resistance evaluation | Scores
37 | B1 | Non-resistant | 100
38 | B2 | Poorly resistant | 40
39 | B3 | Non-resistant | 100

same assay, conditions: mesotrione 105 g ai/ha; Arabidopsis thaliana T1 plants; 16 plants

Row | Molecule | Grade 0 (classification and statistics of the grade of pesticide damage; number of plants) | Grade 1 (classification and statistics of the grade of pesticide damage; number of plants) | Grade 2 (classification and statistics of the grade of pesticide damage; number of plants) | Grade 3 (classification and statistics of the grade of pesticide damage; number of plants)
40 | B1 | 0 | 0 | 0 | 16
41 | B2 | 0 | 13 | 3 | 0
42 | B3 | 0 | 0 | 0 | 16
